The nanobody polyreactivity screen of Harvey et al. (2022)

Test: yeast display, Sf9 membrane polyspecificity reagent, FACS + sequencing; frameworks hold sequencing errors
Procedure, shortened: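 A synthetic nanobody library was expressed on Saccharomyces cerevisiae BJ5465 by galactose induction for 36–48 hours. The library was stained for 1 hour at 4 °C with 10% biotinylated, detergent-solubilized Sf9 membrane reagent and enriched with streptavidin microbeads before FACS. Low and high (top ~1%) gates were set on anti-HA fluorescence for expression and streptavidin fluorescence for reagent binding, and each polyreactivity label reflects the gate of origin.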

Sequence	polyreactivity (PSR sort gate)
QVQLVESGGGLVQAGGSLRLSCAASGFTFSYYAMGWYRQAPGHEREFVAAIIWNGTSTYYADSVKGRFTISRDNAKNTVYLQMNSLKPEDTAVYYCAAYDVHDYDYWGQGTQVTVSS	high polyreactivity
QVQLVESGGGLVQAGGSLRLSCAASGSIFYGYAMGWYRQAPGKERELVAAINWSGGGTYYADSVKGRFTISRDNAKNTVYLQMNSLKPEDTAVYYCAAGHVVRRPYLIYDYWGQGTQVTVSS	high polyreactivity
QVQLVESCGDLVQAGASLRLSCAASGRIFVYYAMGWYRQAPGKERELVALITSLGSTNYSDSVKGRFTISRDNGKNCVYLQMNSLKPEDTAVYYCAAEWEYYGFDYWGQGTQVTVSS	low polyreactivity
QVQLVESGGGLVQAGGSLRLSCAASGSTFYANAMGWYRQAPGKERELVAAISWRGGSTYYADSVKGRFTISRDNAKNTVYLQMNSLKPEDTAVYYCNRVQRYIRHGDYWGQGTQVTVSS	high polyreactivity
QVQLVESGGGLVQAGGSLRLSCAASGGIFRRYAMVWYRQAPGKERELVAGISYSGGSTYYADSVKGRFTISRDNAKNTVYLQMNSLKPEDTAVDYCATVGYVWYRSVNVWSPMDYWGQGTQVTVSS	high polyreactivity
QVQLVELGGGLVQAGGILRLSCAASGSIFSWNDMGWYRQAPGKERELVAAITSGGSTYYADSVKGRFTISRDNAKNTVYLQMNSLKPEDTAVYYCAAGQDLHDFDYWGQGTQVTVSS	low polyreactivity
QVQLVESGGGLVQAGGSLRLSCAASGYTFVYNGMGWYRQAPGKERELVAAITWGGAGTYYADSVKGRFTISRDNAKNTVYLQMISLKPEDTSVYYCAPPSPRSRAYTYRGDYWGQGTQVTVSS	low polyreactivity
QVQLVESGGGLVQAGGSLRLSCAASGSTFSDNAMGWYRQAPGKERELVAGITGGGGTYYADSVKGRFTISRDNAKNTVYLQMNSLKPEDTAVYYCAADTWGTPTPFVHYPEFEHWGQGTQVTVSS	low polyreactivity
QVQLVESGVCLVQAGGSLLLSCAASRRIFRNAMGWYRHAPGKERELVAAISSGGTTNYADSVKGRFTISRDNAKNTVYLLMNSLKPEDTAVYYCAAAPSSYRYRYVVFTFGYWGQGTQVTVSS	high polyreactivity
QVQLVESGGGLVQAGGSLRLSCAASGFTFDENAMGWYRQAPGINYSGASTYYADSVKGRFTISRDNAKNTVYLQMNSLKPDDTAVYYCAAEVVAQMNYWGQGTQVTVSS	low polyreactivity
QVQLVESGGGLVQAGGILRLSCSASGRIFQFYAMGWYRQAPGKERELVAGISWSGGSTNYADSVKGRFTISRDNAKNTVYLQMNSLKPEDSAVYYCNVDLYNWRGDSTGYDYWGQGTQVTVSS	low polyreactivity
QVQLVESGGGLVQAGGSLRLSCAASGRNFKYYTMGWYRQAPGKETELVAAISSGGRTKYADSVKGRFTISRDNAKNTVYLQMNSLKPEDTAVYYCNAGYPYPFYRSSQTGGYDYWGQGTQVTVSS	high polyreactivity
QVQLVESGGGLVQAGGSLRLSCAASGFIFRAYTMGWYRQAPGKERELVAGITSGGSTYYADSVKGRFTISRDNAKNTVYLQMNSLKPDDTAVYYCATYYRRWTPIPYEYWGQGTQVTVSS	high polyreactivity
QVQLVESGGGLVQAGGSLRLSCAASGRTFTINAMGWYRQAPGKERELVATIRSSGGSTSYADSVKGRFTISRDNAKNTVYLQMNSLKPEDTAVYYCAADGWGRYDYWGQGTQVTVSS	low polyreactivity
QVQHVESGGGLVQAGGSLRLSCAASGRIFVRNAMGWYIQAPGKERELVAAITSGASTYYADSVKGRFTISRDNAKYTVYFQMYSVKPEDTAVSYCAAQAVIASWWTVDYYYWGQGTQVTVSS	high polyreactivity
QVQLVESGGGLVQAGGSLRLSFAASGRTFGYYAMGWYRHAPGKERELVAAITRNGGRTYYADSVKGRFTISSDNAKNTFYLQMNSLKPEDTAVYYCAKDQYKPEAFYYWGQGTQVTVSS	high polyreactivity
QVQLVESGGGLVQAGGSLRLSCAASGRIFGQNAMGWYRQAPGKERELVAVISQSGGRTYYADSVKGRFTISRDNAKNTVYLQMNSLKPEDTAVYYCAKGGYQHYWGQGTQVTVSS	high polyreactivity
QDQLVESGGGLVQAGGSLRLTCAASGFIFDRNTMGLYRQATGNDTELVAAISRSGGSTYYSDSVNGRFTISRDNAKNTVYLQMNSMKPEDTAVYNCGALYYYRNRSYYYWGQGTHVTVSS	high polyreactivity
QVQLVESGGGLVQAGGSLRLSCAASAMGRYRQAPGKERELVAGITSSGGSTYYADSVKGRFTISRDNAKNTVYLQMNSLKPEDTAVYYCNADNAGYGYWSYPYYYWGQGTQVTVSS	low polyreactivity
QVQLVESGGGLVQAGGSLRLSCAASGIIFQRNDMGWYRQAHGKERELVANIRDGGITYADSVKGRFTISRDNAKNTVYLKMNSLKPEDTAVYYCARDDTSPGYGDQSSNASNYYWGQGTQVTVSS	low polyreactivity
QVQLVESGGGLVQAGGSLRLSCAASGRIFPISAMGWYRQAPGKERVLVAAIDSGGSTTYADSVKGRFTISRDNEKNTVYLQMNSLKPEDSADYYCAAKGAYPYWYPVGYRYDYWGQGTQVTVSS	low polyreactivity

Sequence	polyreactivity (PSR sort gate)
QVQLVESGGCLVQAGGSLRLSCAASGRIFYNYAMGWYRQAPGKERELVAAISGSGGSTYYADSVKGRFTISRDNAKNTVYLQMNSLKPEDTAVYYCSTSGPQYYSRNFDYWGQGTQVTVSS	low polyreactivity
QVQLVESGGGLVQAGGSLRLSCAASGRTFSYYAMGWYRQAPGKERELVAAISQRGGSTYYADSVKGRFTISRDNAKNTVYLQMNSLKPEDTAVYYCAVLVSRYRYRVLDDYWGQGTQVTVSS	high polyreactivity
QVQLVESGGGLVQAGGSLRLSCAASGSTFGYYAMRWSRQAPGKERELVAAISGSGGSTYYADSVKGRFTISRDNAKNTVYLQMNSLKQEDTAVYYCATSWAGSEYYYWGQGTQVTVSS	high polyreactivity
QVQLVESGGGLVQAGGSLRLSCAASGRTIDSNAMGWYRQAPGKERELVATIDRGGSTNYADSVKGRFTISRDNAKNTVYLQMNSLKPEDTAVYYCATRGHYHAFYYTYPRYDSWGQGTQVTVSS	low polyreactivity
QVQLVESGGGLVPAGGSLRLSCAASGRTFWIYAMGWYRQAPGKERELVASIRWSTGNTNYADSVKGRFTISRDNAKNTVYLQMNSLLPEDTAVYYCNARRRWRGGPTYIYWGQGTQVTVSS	high polyreactivity
QVQLVESGGGLVQAGGSLRLSCAASGRIFKYYAKGWYRQAPGKERELVAAISWSGGRTYYADSVKGRFTISRDNAKTTVYLQMNSLKPEDTAVYDCNAASLRYSYTLFDSWGQGTQVTVSS	high polyreactivity
QVQLVESGGGLVQAGGSLRLSCAASGRTCKYYAMGWYRQAPGKERELVATITWSGTSTNNADSVKGRFTISRDNAKNTVYLQMNSLKPEETAVYYCAARSKRRNYDYWGQGTQVTVSS	high polyreactivity
QVQLVESGGGLVQAGGSLRLSCAASGSTFDYYAMGWYRQAPGKERELVAAITSTGSTYYADSVKGRFTISRDNAKNTVYLQMNSLKPEDTAVYYCAADDIYKYYQYYAFPYYRYDYWGQGTQVTVSS	low polyreactivity
QDQLVESGGGLVQARGTLRLSCAASGRTFYQNAMGWYRHAPGKEREFVGAITGGTGSTHYADSVKGRFTISRDNAKNTVFLQMNSLKPEDTAVYYCATRYLLGFSRYDYCGQGTQVTVSS	low polyreactivity
QVQLVESGGGLVQAGGSLRLSCAASGRIFFTNAMGWYRQAPGKERELVAAIRSSGGRTYYADSVKGRFTISRDNAKNTVYLQMNSLKPEDTAVYYCNVVDGRHISHYNYWGQGTQVTVSS	high polyreactivity
QVQLVESGGGLVQAGCSLLLSCAASGRLFSLNAMGWYRQAPGKERELVAAITRSAASTHYADSEKGRFTISRDNAKNTVYLQMNSLKPEDTAVYYCAARFWYDYRHYDYWGQGTEVTVSS	low polyreactivity
QVQLVESGGGLVQAGGSLSLSCAASGRIFYVNTMGWYRQAPGKERELVATISSAASTNYADSVKGRFTISRDNAKNTVYLQMNSLKPEDTAVYYCNAAFYKEYYYWGQGTQVTVSS	low polyreactivity
QDQHGESGGGLVQAGGSLRLSCAASGYTFLRNDMGWYRQPHGKVRELVAAISYSGGGTYYADSVKGRFTISRDNAKITVYLQMNSLKPEDTAVYYCNVAQRYYGNFFSSRYEYWGQGTQVTVSS	low polyreactivity
QVQLVESGGGLVQAGGSLRLSCAASGNTFTRNTMGWYRPAPGKERELVASISLSGASTYYADSVKGRFTISRDNAKNTVYLQMNSLKPEDTAVYYCAAEYFNYKTDVDYWGQGTQVTVSS	high polyreactivity
QVQLVESAGGLVQAGGSLRLSSAASGRIFLYYAMGWYRQAPGKEREFVAAITYIGGSTYYADSVKGRFTISRDNAKNTVYLQMNSLKPEDTAVYWGEGTQVTVSS	low polyreactivity
QVQLVESGGGLVQAGGSLRLSCAASGRIFYFYAMGWYRQAPGKERELVAAISTSGGSTYYADSVKGRFTISRDNAKITVYLQMNSLKPEDTAVYYCAARFRYYGSEYDYWGQGTQVTVSS	low polyreactivity
QVQLVESGGGLVQAGGSHRLSCAASGNTFPLYAMGWYRQAPGKERELVAAISQRGGSTYYADSVKGRFTISRDNAKNTVYLQMNSLKPEDTAVYYCAATWADEYQYRRYYYWGHGTQVTVSS	high polyreactivity
QVPLVESGGGLVQAGGSLRLSCAASGFIFYANAMGWYRQAPGKERELVAAISWDGGRTYYADSVKGRFTISRDNAKNTVYLQMNSLKPDDTAVYSCNALATDLDYWGQGTQVTVSS	low polyreactivity
QVQLVESGGGLVQAGGSLRLSCAASGRTFPYNAMGWYRQAPGKERELVAAISSGGTTNYADSVKGRFTISRDNAKNTVYLQMNSLKPEDTAVYYCAADSVDSSQFRRDYWGQGTQVTVSS	low polyreactivity
QVQLVESGGGLVQAGGSLRLSCAASGRTFRYNAMGWYRQAPGKERELVAAITGGGSTYYADSVKGRFTISRDTAKNTVYLQMNSLKPEDTAVYYCAAANWRRIDYRYRFDYWGQGTQVTVSS	high polyreactivity
